Test results published in IntAct's records for PubMed 20168298.

Target: T1, pkd2_human PKD2 (UniProt Q13563)
T1 sequence: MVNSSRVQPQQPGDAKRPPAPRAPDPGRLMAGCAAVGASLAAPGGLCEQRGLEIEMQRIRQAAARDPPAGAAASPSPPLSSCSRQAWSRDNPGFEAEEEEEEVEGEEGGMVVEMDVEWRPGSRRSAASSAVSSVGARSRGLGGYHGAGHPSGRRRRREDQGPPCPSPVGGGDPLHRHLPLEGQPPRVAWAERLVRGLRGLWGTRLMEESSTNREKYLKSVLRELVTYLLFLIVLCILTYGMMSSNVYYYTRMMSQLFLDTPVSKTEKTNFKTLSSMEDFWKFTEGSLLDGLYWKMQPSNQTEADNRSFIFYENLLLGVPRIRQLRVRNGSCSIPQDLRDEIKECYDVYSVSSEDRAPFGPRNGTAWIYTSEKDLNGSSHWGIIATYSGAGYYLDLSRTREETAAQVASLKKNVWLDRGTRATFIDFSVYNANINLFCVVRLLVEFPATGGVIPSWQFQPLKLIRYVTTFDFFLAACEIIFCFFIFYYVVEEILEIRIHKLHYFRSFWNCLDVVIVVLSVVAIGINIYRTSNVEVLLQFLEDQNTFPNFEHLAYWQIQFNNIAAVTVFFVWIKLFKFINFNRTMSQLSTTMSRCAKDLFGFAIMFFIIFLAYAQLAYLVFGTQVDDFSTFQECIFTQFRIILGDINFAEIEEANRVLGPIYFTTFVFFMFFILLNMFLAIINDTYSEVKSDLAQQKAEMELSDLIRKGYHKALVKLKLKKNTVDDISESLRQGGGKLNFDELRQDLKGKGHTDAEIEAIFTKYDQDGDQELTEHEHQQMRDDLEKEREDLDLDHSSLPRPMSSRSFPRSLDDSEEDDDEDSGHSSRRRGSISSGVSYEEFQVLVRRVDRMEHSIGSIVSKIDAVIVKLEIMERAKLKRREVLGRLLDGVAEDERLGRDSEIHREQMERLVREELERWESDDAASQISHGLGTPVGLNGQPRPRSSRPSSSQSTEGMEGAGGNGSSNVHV

effect of a mutation on the interaction: disrupting interaction
Substance: Polycystin-1 (Homo sapiens) (from UniProt P98161) Q4225P
